Experimental data published in patent publication US9724381B2 (THE ADMINISTRATORS OF THE TULANE EDUCATIONAL FUND, priority 2009, dated 2017).
Where no end group is shown, it is not given here. [ ]: non-standard residue; d: D form. The star is where a group is joined. d2Nal = N[C@H](Cc1ccc2ccccc2c1)C(=O)O; Cha = N[C@@H](CC1CCCCC1)C(=O)O; dCha = N[C@H](CC1CCCCC1)C(=O)O; Picolinoyl = O=C(c1ccccn1)*; Nle = CCCC[C@H](N)C(=O)O; Orn = NCCC[C@H](N)C(=O)O; dPal = not defined here; Aib = CC(C)(N)C(=O)O; Inp = O=C(O)C1CCNCC1; GABA = NCCCC(=O)O; iPr = CC(C)*

What was measured:
[1] = biological target: T1, Ghrelin/GHRP/GHS Receptor (Rattus norvegicus, UniProt O08725); experiment: In vitro GH release from cell culture of pituitary cells; format: cell-based; design: After dispersion, the cells were collected by centrifugation, wash with DMEM and placed into culture well; endogenous in cells; host or cells: dispersed primary rat anterior pituitary cells; settings: Table 8
T1 sequence (O08725 whole entry): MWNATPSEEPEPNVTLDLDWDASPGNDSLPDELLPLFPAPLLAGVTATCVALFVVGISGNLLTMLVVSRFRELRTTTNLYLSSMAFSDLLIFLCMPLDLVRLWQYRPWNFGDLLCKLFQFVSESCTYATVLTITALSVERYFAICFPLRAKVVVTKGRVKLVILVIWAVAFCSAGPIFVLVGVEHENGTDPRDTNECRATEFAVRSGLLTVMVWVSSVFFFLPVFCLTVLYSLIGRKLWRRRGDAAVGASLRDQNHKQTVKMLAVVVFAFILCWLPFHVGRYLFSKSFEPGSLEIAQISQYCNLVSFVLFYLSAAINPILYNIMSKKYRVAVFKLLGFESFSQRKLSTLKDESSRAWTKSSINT
Experimental: In vitro GH Release-Female rats of the CD-1 strain were housed in a constant temperature room at 24° C. with 14 h light and 10 h darkness. The rats were fed Purina Rat chow and water at libitum. All studies were started between 0800-1000 hours. Pituitaries of mature female Sprague Dawley rats were rapidly removed after decapitation, neurointermediate lobe discarded and then placed in a pH 7.4 buffer. The pituitaries were cut into ˜3-mm pieces and then transferred to a flask containing HEPS buffer with trypsin and incubated at 37° C. Cells were triturated several times during this period. After dispersion, the cells were collected by centrifugation, wash with DMEM and placed into culture well. Cell cultures were maintained for 4 days at 37° with 8% CO2 added to the incubator atmosphere. After 4 days in culture, cells were washed with lactated Ringer's solution adjusted to pH 7.2-7.4 and then vehicle, peptide alone or peptide plus stimulator was added to media. Incubation time was 60-120 minutes after which media was removed from each well for GH determination. The GH RIA reagents were distributed by the NIH. Control data was collected from cell cultures treated with only the corresponding vehicle in the absence of peptide or stimulator. Control stimulated data was collected from cell cultures treated with stimulator alone in the absence of any peptide.

[2] = biological target: T1, Ghrelin/GHRP/GHS Receptor; experiment: In vivo GH release in rat (serum GH by RIA after i.v. peptide); settings: for Unstimulated Basal GH Release from rat: Table 3; for Unstimulated Basal GH release from rats: Table 5; for Stimulated GH release from rat: Table 2
Experimental: For the in vivo assay of GH Release in rat, immature female Sprague Dawley rats were obtained from Charles River from Wilmington, Mass. After arrival they were housed at 25° C. with a 14:10 h light:dark cycle. Water and Purina rat chow were available at libitum. Pups were weaned at 21 days of age.
Immature twenty six day old female Sprague Dawley rats, 3-6 rats per treatment dose, were pretreated with pentobarbital 20 minutes before iv injection of vehicle/peptide or peptide plus stimulator. Injection was made as a 0.1 ml solution. For the non-pentobarbital treated rat assay, peptides were administered iv into the tail vein of conscious rats. All animals were sacrificed by guillotine after iv peptide or vehicle. Trunk blood was collected at +10-15 minutes […], allowed to clot, centrifuged and serum stored until assayed for GH levels by RIA. The GH RIA reagents were distributed by the NIH. Control data was collected from rats treated with only the corresponding vehicle in the absence of peptide or stimulator. Control stimulated data was collected from rats treated with stimulator alone in the absence of any peptide.

[3] = peptide antagonist dosage 3 (head prints μg/i.v.)
[4] = peptide antagonist dosage 10 (head prints μg/i.v.)
[5] = peptide antagonist dosage 30 (head prints μg/i.v.)
[6] = peptide antagonist dosage 100 (head prints μg/i.v.)
[7] = peptide antagonist dosage 1 (head prints μg/i.v.)
[8] = peptide antagonist alone 10 μg i.v.
[9] = peptide antagonist alone 30 μg i.v.

## Ac-DLys-Tyr-DTrp-DTrp-Phe-NH2 (Ac-[dK]Y[dW][dW]F-NH2; SMILES CC(=O)N[C@H](CCCCN)C(=O)N[C@@H](Cc1ccc(O)cc1)C(=O)N[C@H](Cc1c[nH]c2ccccc12)C(=O)N[C@H](Cc1c[nH]c2ccccc12)C(=O)N[C@@H](Cc1ccccc1)C(N)=O)
[1]; [3]
  Unstimulated Basal GH release from cell cultures of pituitary cells: 105 ± 8 ng/mL
[1]; [4]
  Unstimulated Basal GH release from cell cultures of pituitary cells: 950 ± 91 ng/mL
[1]; [5]
  Unstimulated Basal GH release from cell cultures of pituitary cells: 782 ± 56 ng/mL
[1]; [6]
  Unstimulated Basal GH release from cell cultures of pituitary cells: 756 ± 1 ng/mL

## DPal-Trp-DPhe-Phe-Met-NH2 ([dPal]W[dF]FM-NH2; reading uncertain; also: printed as DPal-Trp-DPhe-Phe-Met-NH2)
[1]; [3]
  Unstimulated Basal GH release from cell cultures of pituitary cells: 1105 ± 18 ng/mL
[1]; [4]
  Unstimulated Basal GH release from cell cultures of pituitary cells: 891 ± 4 ng/mL
[1]; [5]
  Unstimulated Basal GH release from cell cultures of pituitary cells: 567 ± 24 ng/mL

## Ac-DβNal-PicLys-ILys-DPhe-NH2 (Ac-[d2Nal]K(Picolinoyl)K(iPr)[dF]-NH2; SMILES CC(=O)N[C@H](Cc1ccc2ccccc2c1)C(=O)N[C@@H](CCCCNC(=O)c1ccccn1)C(=O)N[C@@H](CCCCNC(C)C)C(=O)N[C@H](Cc1ccccc1)C(N)=O) [Ac-DβNal-PlcLys-ILys-DPhe-NH2]
[1]; [3]
  Unstimulated Basal GH release from cell cultures of pituitary cells: 1013 ± 207 ng/mL
[1]; [4]
  Unstimulated Basal GH release from cell cultures of pituitary cells: 976 ± 13 ng/mL
[1]; [5]
  Unstimulated Basal GH release from cell cultures of pituitary cells: 928 ± 16 ng/mL

## DAla-DcyclohexylAla-Ala-Ala-Phe-DPhe-Nle-NH2 ([dA][dCha]AAF[dF][Nle]-NH2; N-terminus assumed; SMILES CCCC[C@H](NC(=O)[C@@H](Cc1ccccc1)NC(=O)[C@H](Cc1ccccc1)NC(=O)[C@H](C)NC(=O)[C@H](C)NC(=O)[C@@H](CC1CCCCC1)NC(=O)[C@@H](C)N)C(N)=O)
[1]; [7]
  Unstimulated Basal GH release from cell cultures of pituitary cells: 286 ± 75 ng/mL
[1]; [3]
  Unstimulated Basal GH release from cell cultures of pituitary cells: 177 ± 44 ng/mL
[1]; [4]
  Unstimulated Basal GH release from cell cultures of pituitary cells: 271 ± 38 ng/mL
[1]; [5]
  Unstimulated Basal GH release from cell cultures of pituitary cells: 376 ± 28 ng/mL

## DPal-Phe-DTrp-Phe-Met-NH2 ([dPal]F[dW]FM-NH2; reading uncertain; also: printed as DPal-Phe-DTrp-Phe-Met-NH2)
[1]; [3]
  Unstimulated Basal GH release from cell cultures of pituitary cells: 1081 ± 50 ng/mL
[1]; [4]
  Unstimulated Basal GH release from cell cultures of pituitary cells: 997 ± 30 ng/mL
[1]; [5]
  Unstimulated Basal GH release from cell cultures of pituitary cells: 425 ± 25 ng/mL

## DPhe-Trp-DPhe-Phe-Met-NH2 ([dF]W[dF]FM-NH2; N-terminus assumed; SMILES CSCC[C@H](NC(=O)[C@H](Cc1ccccc1)NC(=O)[C@@H](Cc1ccccc1)NC(=O)[C@H](Cc1c[nH]c2ccccc12)NC(=O)[C@H](N)Cc1ccccc1)C(N)=O)
[1]; [3]
  Unstimulated Basal GH release from cell cultures of pituitary cells: 1146 ± 34 ng/mL
[1]; [4]
  Unstimulated Basal GH release from cell cultures of pituitary cells: 1086 ± 32 ng/mL
[1]; [5]
  Unstimulated Basal GH release from cell cultures of pituitary cells: 871 ± 89 ng/mL

## αAib-DTrp-DAla-cyclohexylAla-NH2 ([Aib][dW][dA][Cha]-NH2; N-terminus assumed; SMILES C[C@@H](NC(=O)[C@@H](Cc1c[nH]c2ccccc12)NC(=O)C(C)(C)N)C(=O)N[C@@H](CC1CCCCC1)C(N)=O)
[1]; [7]
  Unstimulated Basal GH release from cell cultures of pituitary cells: 1086 ± 52 ng/mL
[1]; [3]
  Unstimulated Basal GH release from cell cultures of pituitary cells: 1103 ± 18 ng/mL
[1]; [4]
  Unstimulated Basal GH release from cell cultures of pituitary cells: 994 ± 22 ng/mL
[1]; [5]
  Unstimulated Basal GH release from cell cultures of pituitary cells: 704 ± 115 ng/mL

## DPhe-Ala-Phe-DPal-NH2 ([dF]AF[dPal]-NH2; reading uncertain; also: printed as DPhe-Ala-Phe-DPal-NH2)
[1]; [3]
  Unstimulated Basal GH release from cell cultures of pituitary cells: 170 ± 19 ng/mL
[1]; [4]
  Unstimulated Basal GH release from cell cultures of pituitary cells: 181 ± 31 ng/mL
[1]; [5]
  Unstimulated Basal GH release from cell cultures of pituitary cells: 161 ± 20 ng/mL
[1]; [6]
  Unstimulated Basal GH release from cell cultures of pituitary cells: 146 ± 21 ng/mL

## DAla-DβNal-Ala-Ala-DAla-Lys-NH2 ([dA][d2Nal]AA[dA]K-NH2; N-terminus assumed; SMILES C[C@H](NC(=O)[C@H](C)NC(=O)[C@@H](Cc1ccc2ccccc2c1)NC(=O)[C@@H](C)N)C(=O)N[C@H](C)C(=O)N[C@@H](CCCCN)C(N)=O)
[2]; peptide alone 3 μg i.v.
  Unstimulated Basal GH Release from rat: 235 ± 43 ng/mL
[2]; peptide alone 10 μg i.v.
  Unstimulated Basal GH Release from rat: 178 ± 33 ng/mL
[2]; peptide alone 30 μg i.v.
  Unstimulated Basal GH Release from rat: 172 ± 15 ng/mL
[2]; peptide alone 100 μg i.v.
  Unstimulated Basal GH Release from rat: 185 ± 39 ng/mL

## DcyclohexylAla-Ala-Trp-DPhe-NH2 ([dCha]AW[dF]-NH2; N-terminus assumed; SMILES C[C@H](NC(=O)[C@H](N)CC1CCCCC1)C(=O)N[C@@H](Cc1c[nH]c2ccccc12)C(=O)N[C@H](Cc1ccccc1)C(N)=O)
[2]; peptide alone 3 μg i.v.
  Unstimulated Basal GH Release from rat: 181 ± 28 ng/mL
[2]; peptide alone 10 μg i.v.
  Unstimulated Basal GH Release from rat: 237 ± 18 ng/mL
[2]; peptide alone 30 μg i.v.
  Unstimulated Basal GH Release from rat: 354 ± 81 ng/mL
[2]; peptide alone 100 μg i.v.
  Unstimulated Basal GH Release from rat: 771 ± 76 ng/mL

## DAla-DβNal-Ala-Thr-DThr-Lys-NH2 ([dA][d2Nal]AT[dT]K-NH2; N-terminus assumed; SMILES C[C@H](NC(=O)[C@@H](Cc1ccc2ccccc2c1)NC(=O)[C@@H](C)N)C(=O)N[C@H](C(=O)N[C@@H](C(=O)N[C@@H](CCCCN)C(N)=O)[C@H](C)O)[C@@H](C)O)
[2]; peptide alone 3 μg i.v.
  Unstimulated Basal GH Release from rat: 255 ± 38 ng/mL
[2]; peptide alone 30 μg i.v.
  Unstimulated Basal GH Release from rat: 288 ± 31 ng/mL
[2]; peptide alone 100 μg i.v.
  Unstimulated Basal GH Release from rat: 386 ± 57 ng/mL

## His-Trp-DAla-DTrp-Phe-LysNH2 (HW[dA][dW]FK-NH2)
[2]; peptide alone 1 μg i.v.
  Unstimulated Basal GH Release from rat: 204 ± 44 ng/mL
[2]; peptide alone 3 μg i.v.
  Unstimulated Basal GH Release from rat: 127 ± 44 ng/mL
[2]; peptide alone 10 μg i.v.
  Unstimulated Basal GH Release from rat: 83 ± 5 ng/mL

## [GABA][dW][dW][Orn]-NH2
[2]; peptide antagonist alone 1 μg i.v.
  Unstimulated Basal GH release from rats: 82 ± 28 ng/mL
[2]; [8]
  Unstimulated Basal GH release from rats: 90 ± 5 ng/mL
[2]; [9]
  Unstimulated Basal GH release from rats: 113 ± 32 ng/mL

## Glyψ[CH2NH]-DβNal-DLys-Trp-DPhe-Lys-NH2 (G[d2Nal][dK]W[dF]K-NH2; also: reduced Gly-ψ[CH2NH] bond between Gly1 and DβNal2)
[2]; peptide antagonist 1 μg i.v. + stimulator DAla-DβNal-Ala-Trp-DPhe-Lys-NH2 1 μg
  Stimulated GH release from rat: 2305 ± 320 ng/mL
[2]; peptide antagonist 3 μg i.v. + stimulator DAla-DβNal-Ala-Trp-DPhe-Lys-NH2 1 μg
  Stimulated GH release from rat: 1990 ± 196 ng/mL
[2]; peptide antagonist 10 μg i.v. + stimulator DAla-DβNal-Ala-Trp-DPhe-Lys-NH2 1 μg
  Stimulated GH release from rat: 1550 ± 284 ng/mL
[2]; peptide antagonist 30 μg i.v. + stimulator DAla-DβNal-Ala-Trp-DPhe-Lys-NH2 1 μg
  Stimulated GH release from rat: 946 ± 133 ng/mL
[2]; peptide antagonist 100 μg i.v. + stimulator DAla-DβNal-Ala-Trp-DPhe-Lys-NH2 1 μg
  Stimulated GH release from rat: 462 ± 122 ng/mL

## inip-Trp-Trp-Phe-NH2 ([Inp]WWF-NH2; N-terminus assumed; SMILES NC(=O)[C@H](Cc1ccccc1)NC(=O)[C@H](Cc1c[nH]c2ccccc12)NC(=O)[C@H](Cc1c[nH]c2ccccc12)NC(=O)C1CCNCC1)
[2]; [8]
  Unstimulated Basal GH release from rats: 69 ± 3 ng/mL
[2]; [9]
  Unstimulated Basal GH release from rats: 81 ± 10 ng/mL

## DAla-DβNal-DAla-DTrp-Phe-Lys-NH2 ([dA][d2Nal][dA][dW]FK-NH2)
[2]; peptide alone 1 μg i.v.
  Unstimulated Basal GH Release from rat: 184 ± 55 ng/mL
[2]; peptide alone 3 μg i.v.
  Unstimulated Basal GH Release from rat: 467 ± 201 ng/mL
[2]; peptide alone 10 μg i.v.
  Unstimulated Basal GH Release from rat: 244 ± 107 ng/mL

## DAla-DcyclohexylAla-Ala-Phe-DPhe-Nle-NH2 ([dA][dCha]AF[dF][Nle]-NH2; N-terminus assumed; SMILES CCCC[C@H](NC(=O)[C@@H](Cc1ccccc1)NC(=O)[C@H](Cc1ccccc1)NC(=O)[C@H](C)NC(=O)[C@@H](CC1CCCCC1)NC(=O)[C@@H](C)N)C(N)=O)
[2]; peptide alone 1 μg i.v.
  Unstimulated Basal GH Release from rat: 435 ± 152 ng/mL
[2]; peptide alone 3 μg i.v.
  Unstimulated Basal GH Release from rat: 195 ± 34 ng/mL
[2]; peptide alone 10 μg i.v.
  Unstimulated Basal GH Release from rat: 250 ± 41 ng/mL
[2]; peptide alone 30 μg i.v.
  Unstimulated Basal GH Release from rat: 393 ± 51 ng/mL
[2]; peptide alone 100 μg i.v.
  Unstimulated Basal GH Release from rat: 697 ± 75 ng/mL
